Results as given in the supplement of paper PMC7125110.
± gives the standard error. Fewer inactive variants are shown than the library holds.

B1: glmS ribozyme (parent)
chain: AUAAAAGCGCCAGAACUACAGAAAUGUAGUUGACGAGGAGGAGGUUUAUCGAAUUUUCGGCGGAUGCCUCCAAA

Legend:
Conditions in all cases: with glucosamine-6-phosphate
[1] = variants of: B1; test: self-cleavage kobs at 40 uM GlcN6P; higher = faster cleavage; RNA array
In short: (§1)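 kobs was derived by fitting per-tile medians to one- or two-exponential decays after normalising signals to baseline and to non-cleaving reference variants. Those signals came from barcoded ribozyme variants transcribed in situ by E. coli RNA polymerase on sequenced MiSeq chips, followed through a hybridised Cy3 probe at 37 °C and imaged over ~14 h. Glucosamine-6-phosphate (40 μM to 10 mM) in HEPES/KCl/Mg(OAc)2 buffer was flowed in. Weighted Michaelis–Menten fits across concentrations then gave kcat and KM.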

[2] = variants of: B1; test: self-cleavage kobs at 160 uM GlcN6P; higher = faster cleavage; RNA array
In short: as §1

[3] = variants of: B1; test: self-cleavage kobs at 640 uM GlcN6P; higher = faster cleavage; RNA array
In short: as §1

[4] = variants of: B1; test: self-cleavage kobs at 10000 uM GlcN6P; higher = faster cleavage; RNA array
In short: as §1

[5] = variants of: B1; test: self-cleavage kobs at 2500 uM GlcN6P; higher = faster cleavage; RNA array
In short: as §1

| Variant | self-cleavage kobs at 40 uM GlcN6P [1] | self-cleavage kobs at 160 uM GlcN6P [2] | self-cleavage kobs at 640 uM GlcN6P [3] | self-cleavage kobs at 10000 uM GlcN6P [4] | self-cleavage kobs at 2500 uM GlcN6P [5] |
| --- | --- | --- | --- | --- | --- |
| C16U G60U | < 1e-05 s⁻¹ | < 1e-05 s⁻¹ | < 1e-05 s⁻¹ | – | – |
| A15U G38C G66U C67U | < 1e-05 s⁻¹ | – | – | < 1e-05 s⁻¹ | – |
| A15G U30A G41A G51U G62A | < 1e-05 s⁻¹ | – | – | – | < 1e-05 s⁻¹ |
| C16A C50G | 0.000251 ± 0.0001 s⁻¹ | 7.18e-05 ± 1.9e-05 s⁻¹ | 4.7e-05 ± 1.7e-05 s⁻¹ | 7.6e-05 ± 3.6e-05 s⁻¹ | 5.49e-05 ± 1.1e-05 s⁻¹ |
| G29A A36G | < 1e-05 s⁻¹ | < 1e-05 s⁻¹ | < 1e-05 s⁻¹ | – | < 1e-05 s⁻¹ |
| G29A A33G A36C U45C | < 1e-05 s⁻¹ | – | – | – | – |
| G29U G41A C58U | < 1e-05 s⁻¹ | – | – | < 1e-05 s⁻¹ | – |
| U30A G35A G59A C71G | < 1e-05 s⁻¹ | – | – | – | < 1e-05 s⁻¹ |
| U30C A39U C68A | < 1e-05 s⁻¹ | – | – | < 1e-05 s⁻¹ | – |
| A15G A33U C71U | < 1e-05 s⁻¹ | – | – | 5.87e-05 ± 1.3e-05 s⁻¹ | – |
| C16G U49C | < 1e-05 s⁻¹ | < 1e-05 s⁻¹ | – | < 1e-05 s⁻¹ | < 1e-05 s⁻¹ |
| U30A A33U G41U A53C G60A C68G | < 1e-05 s⁻¹ | < 1e-05 s⁻¹ | < 1e-05 s⁻¹ | < 1e-05 s⁻¹ | – |
| A15C G59U | < 1e-05 s⁻¹ | < 1e-05 s⁻¹ | < 1e-05 s⁻¹ | – | – |
| C16A U31A U47C G63A | < 1e-05 s⁻¹ | – | – | – | – |
| C16U U31G C50G C70A | 0.000109 ± 2.3e-05 s⁻¹ | – | – | 6.25e-05 ± 1.3e-05 s⁻¹ | – |
| C16U U45A | 0.00211 ± 0.00039 s⁻¹ | – | 0.0159 ± 0.003 s⁻¹ | 0.0689 ± 0.015 s⁻¹ | 0.0183 ± 0.0057 s⁻¹ |
| G21U U31A | 0.000447 ± 9.2e-05 s⁻¹ | 0.00108 ± 0.0003 s⁻¹ | 0.00614 ± 0.0013 s⁻¹ | 0.042 ± 0.018 s⁻¹ | 0.0102 ± 0.0025 s⁻¹ |
| A14U U31G G38C A52U A53U | < 1e-05 s⁻¹ | – | – | – | – |
| C16U A53U | 0.00056 ± 5.9e-05 s⁻¹ | 0.000815 ± 0.00015 s⁻¹ | 0.00552 ± 0.00076 s⁻¹ | 0.0301 ± 0.0055 s⁻¹ | 0.00594 ± 0.0012 s⁻¹ |
| C16A G62C | < 1e-05 s⁻¹ | < 1e-05 s⁻¹ | < 1e-05 s⁻¹ | < 1e-05 s⁻¹ | < 1e-05 s⁻¹ |
| C16G G29U G32A | 7.82e-05 ± 1.9e-05 s⁻¹ | – | – | 0.0042 ± 0.0009 s⁻¹ | – |
| C16G G29U | 0.000398 ± 5.9e-05 s⁻¹ | 0.00129 ± 0.00034 s⁻¹ | 0.00183 ± 0.00046 s⁻¹ | 0.0203 ± 0.0044 s⁻¹ | 0.00758 ± 0.0015 s⁻¹ |
| G29C G41U A48G U49C G60C | < 1e-05 s⁻¹ | – | – | < 1e-05 s⁻¹ | – |
| C16G U30G C50G | 0.00013 ± 4.8e-05 s⁻¹ | – | 6.59e-05 ± 3.2e-05 s⁻¹ | 7.3e-05 ± 1.9e-05 s⁻¹ | 0.000324 ± 5e-05 s⁻¹ |
| A15C C16A U31G A36G A39G A42C | < 1e-05 s⁻¹ | – | – | – | < 1e-05 s⁻¹ |
| C16U C50A A52C U65C G66U | < 1e-05 s⁻¹ | – | < 1e-05 s⁻¹ | – | – |

| Variant | self-cleavage kobs at 40 uM GlcN6P [1] | self-cleavage kobs at 160 uM GlcN6P [2] | self-cleavage kobs at 640 uM GlcN6P [3] | self-cleavage kobs at 10000 uM GlcN6P [4] | self-cleavage kobs at 2500 uM GlcN6P [5] |
| --- | --- | --- | --- | --- | --- |
| A15G A42G A53G | 0.00166 ± 0.00034 s⁻¹ | – | 0.00796 ± 0.003 s⁻¹ | – | – |
| A15U G32A A42C U54C U56G G63A | < 1e-05 s⁻¹ | – | – | – | – |
| G29A C34U | < 1e-05 s⁻¹ | – | – | – | – |
| G29A U55G G60C | < 1e-05 s⁻¹ | – | – | – | – |
| C16A A48G | < 1e-05 s⁻¹ | – | < 1e-05 s⁻¹ | < 1e-05 s⁻¹ | < 1e-05 s⁻¹ |
| C16U A33U C68A | < 1e-05 s⁻¹ | < 1e-05 s⁻¹ | – | – | – |
| U30A A39U C67G C68G | 0.000113 ± 2.1e-05 s⁻¹ | – | – | 8.62e-05 ± 1.7e-05 s⁻¹ | – |
| C16A C61U | < 1e-05 s⁻¹ | < 1e-05 s⁻¹ | < 1e-05 s⁻¹ | < 1e-05 s⁻¹ | < 1e-05 s⁻¹ |
| A15C A33U C61A | < 1e-05 s⁻¹ | – | – | – | – |
| A15G U49C | < 1e-05 s⁻¹ | – | < 1e-05 s⁻¹ | – | – |
| G29A G51A | < 1e-05 s⁻¹ | – | – | < 1e-05 s⁻¹ | – |
| A15G G60C | < 1e-05 s⁻¹ | – | – | – | – |
| C16G G37A G40A A48G | < 1e-05 s⁻¹ | – | – | < 1e-05 s⁻¹ | – |
| G21U U30C U57C G66C C67U | < 1e-05 s⁻¹ | – | – | – | – |
| A14U G29U G35A | < 1e-05 s⁻¹ | – | – | – | – |
| A15G G29A U55G | 5.71e-05 ± 1.7e-05 s⁻¹ | – | – | 0.00317 ± 0.00043 s⁻¹ | – |
| C16U G44U U57A C68A | < 1e-05 s⁻¹ | < 1e-05 s⁻¹ | < 1e-05 s⁻¹ | < 1e-05 s⁻¹ | < 1e-05 s⁻¹ |
| C16G U56A C71U | 0.000174 ± 5.5e-05 s⁻¹ | – | – | – | – |
| A15G U31A A36U | < 1e-05 s⁻¹ | – | – | – | – |
| U30C A33C U47G | < 1e-05 s⁻¹ | – | – | < 1e-05 s⁻¹ | – |
| G21C G29A | 6.68e-05 ± 2.4e-05 s⁻¹ | – | – | 0.00366 ± 0.00094 s⁻¹ | – |
| G21A C70A | 3.65e-05 ± 1.8e-05 s⁻¹ | – | – | 0.000262 ± 6.9e-05 s⁻¹ | 7.55e-05 ± 1.5e-05 s⁻¹ |
| A14U U55A | 0.000252 ± 3.9e-05 s⁻¹ | – | – | 0.00696 ± 0.0011 s⁻¹ | – |
| C19A G29U C58A C67G | 3.09e-05 ± 1.3e-05 s⁻¹ | – | – | 6.68e-05 ± 1.4e-05 s⁻¹ | – |
| G29A A48G U49G G62C | < 1e-05 s⁻¹ | < 1e-05 s⁻¹ | – | – | < 1e-05 s⁻¹ |
